In the assay the target is T1, ANK1-F2 (ankyrin 1 membrane-binding domain fragment 2, aa 250–568) (human, UniProt P16157 250-568).
T1 construct: amplified from cDNA of human reticulocyte mRNA; also called HA-ANK1-F2; HA-tagged ANK1-F2; source: E. coli BL21 (DE3) pLysS, pET30a, purified; not shown: HA, C-terminal, kept
T1 sequence (looked up): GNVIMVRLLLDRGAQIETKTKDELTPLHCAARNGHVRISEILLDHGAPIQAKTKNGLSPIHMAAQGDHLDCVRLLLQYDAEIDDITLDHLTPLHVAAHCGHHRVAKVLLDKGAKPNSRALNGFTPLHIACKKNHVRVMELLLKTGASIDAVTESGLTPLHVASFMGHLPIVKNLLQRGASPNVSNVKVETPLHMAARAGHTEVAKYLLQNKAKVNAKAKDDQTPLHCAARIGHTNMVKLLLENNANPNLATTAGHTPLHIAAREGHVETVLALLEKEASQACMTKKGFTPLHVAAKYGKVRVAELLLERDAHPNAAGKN
The assay is described as follows: SPR; BIAcore S200, 25 °C, HBS-EP pH 7.4; ANK1-F2 immobilised on a CM5 chip, PfGAMA-Tr3 or PvGAMA-F2 injected at varying concentrations; response at equilibrium against concentration, 1:1 Langmuir model. Conditions: both partners purified.

B1: recombinant PvGAMA-F2 (P. vivax glycosylphosphatidylinositol-anchored micronemal antigen, aa 345–589) (domain or fragment)
chain: DVSVDEKGDRATTAGGNQSASVAAAAPKDAGPTVAAPNTAATLKTAASPNAAATNTAAPPNMGATSPLSNPLYGTSSLQPKDVAVLVRDLLKNTNIIKFENNEPTSQMDDEEIKKLIESSFFDLSDNTMLMRLLIKPQAAILLIIESFIMMTPSPTRDAKTYCKKALVNGQLIETSDLNAATEEDDLINEFSSRYNLFYERLKLEELREIEQNRKALKNSKGTLSVLEVANSQNAPDGKGVNGSG
notes: PvGAMA, P. vivax, PVX_088910, 771-amino acid protein; Cloned into BamH1/Xho1 sites of pET30a; further vector-encoded residues may be present; also called His-PvGAMA-F2; source: E. coli BL21 (DE3) pLysS, pET30a, purified (Ni-NTA); not shown: Flag, C-terminal, kept
B1: binding was put at a Kd of 13.8 µM.

B2: recombinant PfGAMA-Tr3 (P. falciparum glycosylphosphatidylinositol-anchored micronemal antigen, aa 500–715) (domain or fragment)
chain: KDIIKLLKDLIKYLHIVKFENNEPTTNIDEEGIRKLLENSFFDLNDDILIVRLLLKPQTVILTVIQSFMLMTPSPSRDAKAYCKKALINDQLVPTNDTNILSEENELVNNFSTKYVLIYEKMKLQELKEMEESKLKMKYSKTNLSALQVTNPQNNKDKNDASNKNNNPNNSSTPLIAVVTDLSGEKTEDIINNNVDIATLSVGVQNTFQGPNAKAG
notes: PfGAMA, P. falciparum, PF3D7_0828800, 738-amino acid protein; Cloned into BamH1/Xho1 sites of pET30a; further vector-encoded residues may be present; also called His-PfGAMA-Tr3; Flag-PfGAMA-Tr3; source: E. coli BL21 (DE3) pLysS, pET30a, purified (Ni-NTA); not shown: Flag, C-terminal, kept
As to B2, the dissociation constant Kd (usually the constant that tells how readily two partners part at equilibrium) came out at 0.166 µM.

Values taken from article PMC8931436, “Glycosylphosphatidylinositol-anchored micronemal antigen (GAMA) interacts with the band 3 receptor to promote erythrocyte invasion by malaria parasites” (The Journal of Biological Chemistry, 2022).
